Assay [1] has as its target human NPR1 on HEK293/hNPR1.myc.DDK cells (0 hANP) (human) (UniProt P16066). Description: cell-based or functional assay.
Assay [2] addresses hNPR1-mFc:hANP or hNPR1-hFc:hANP complex (human) (UniProt P01160). Description: SPR, mAb captured, 25C.
In assay [3] the target is hNPR1-mFc:hBNP complex (human) (UniProt P16860). As to the kind of experiment: SPR, mAb captured, 25C.
Assay [4] deals with mfNPR1-mFc (monkey). As to the kind of experiment: SPR, mAb captured, 25C.
The target of assay [5] is mfNPR1-mFc:hANP complex (monkey; human) (UniProt P01160). Description: SPR, mAb captured, 25C. For orientation: In SPR one partner is held on a chip, and binding of the other changes the refractive index at the surface.
Assay [6] deals with mfNPR1-mFc:hBNP complex (monkey; human) (UniProt P16860). Description: SPR, mAb captured, 25C.
In assay [7] the target is hNPR1-mFc:hANP or hNPR1-hFc:hANP complex (human) (UniProt P01160). As to the kind of experiment: SPR, mAb captured, 37C.
The target in assay [8] is hNPR1-mFc:hBNP complex (human) (UniProt P16860). Description: SPR, mAb captured, 37C.
Assay [9] addresses mfNPR1-mFc (monkey). Description: SPR, mAb captured, 37C.
Assay [10] concerns the target mfNPR1-mFc:hANP complex (monkey; human) (UniProt P01160). Description: SPR, mAb captured, 37C.
The target in assay [11] is human NPR1 on HEK293/hNPR1.myc.DDK cells (0 hANP) (human) (UniProt P16066). Description: ECL cell binding (MSD), 0 hANP.
For assay [12], the target named is mNPR1-mFc (mouse). As to the kind of experiment: SPR Biacore, mAb captured by anti-human Fc, 25C.
Assay [13] deals with mNPR1-mFc:hANP complex (mouse; human) (UniProt P01160). Description: SPR Biacore, mAb captured by anti-human Fc, 25C.
The target in assay [14] is mNPR1-mFc:hBNP complex (mouse; human) (UniProt P16860). As to the kind of experiment: SPR Biacore, mAb captured by anti-human Fc, 25C.
In assay [15] the target is mNPR1-mFc (mouse). Description: SPR Biacore, mAb captured by anti-human Fc, 37C.
Assay [16] deals with mNPR1-mFc:hANP complex (mouse; human) (UniProt P01160). As to the kind of experiment: SPR Biacore, mAb captured by anti-human Fc, 37C.
In assay [17] the target is mNPR1-mFc:hBNP complex (mouse; human) (UniProt P16860). As to the kind of experiment: SPR Biacore, mAb captured by anti-human Fc, 37C.
In assay [18] the target is mfNPR1-mFc:hBNP complex (monkey; human) (UniProt P16860). As to the kind of experiment: SPR Biacore, mAb captured by anti-human Fc, 37C.

Consider 2 substances from US20240309103A1.

Sequence of human NPR1 on HEK293/hNPR1.myc.DDK cells (0 hANP) (human) (P16066 33-1061): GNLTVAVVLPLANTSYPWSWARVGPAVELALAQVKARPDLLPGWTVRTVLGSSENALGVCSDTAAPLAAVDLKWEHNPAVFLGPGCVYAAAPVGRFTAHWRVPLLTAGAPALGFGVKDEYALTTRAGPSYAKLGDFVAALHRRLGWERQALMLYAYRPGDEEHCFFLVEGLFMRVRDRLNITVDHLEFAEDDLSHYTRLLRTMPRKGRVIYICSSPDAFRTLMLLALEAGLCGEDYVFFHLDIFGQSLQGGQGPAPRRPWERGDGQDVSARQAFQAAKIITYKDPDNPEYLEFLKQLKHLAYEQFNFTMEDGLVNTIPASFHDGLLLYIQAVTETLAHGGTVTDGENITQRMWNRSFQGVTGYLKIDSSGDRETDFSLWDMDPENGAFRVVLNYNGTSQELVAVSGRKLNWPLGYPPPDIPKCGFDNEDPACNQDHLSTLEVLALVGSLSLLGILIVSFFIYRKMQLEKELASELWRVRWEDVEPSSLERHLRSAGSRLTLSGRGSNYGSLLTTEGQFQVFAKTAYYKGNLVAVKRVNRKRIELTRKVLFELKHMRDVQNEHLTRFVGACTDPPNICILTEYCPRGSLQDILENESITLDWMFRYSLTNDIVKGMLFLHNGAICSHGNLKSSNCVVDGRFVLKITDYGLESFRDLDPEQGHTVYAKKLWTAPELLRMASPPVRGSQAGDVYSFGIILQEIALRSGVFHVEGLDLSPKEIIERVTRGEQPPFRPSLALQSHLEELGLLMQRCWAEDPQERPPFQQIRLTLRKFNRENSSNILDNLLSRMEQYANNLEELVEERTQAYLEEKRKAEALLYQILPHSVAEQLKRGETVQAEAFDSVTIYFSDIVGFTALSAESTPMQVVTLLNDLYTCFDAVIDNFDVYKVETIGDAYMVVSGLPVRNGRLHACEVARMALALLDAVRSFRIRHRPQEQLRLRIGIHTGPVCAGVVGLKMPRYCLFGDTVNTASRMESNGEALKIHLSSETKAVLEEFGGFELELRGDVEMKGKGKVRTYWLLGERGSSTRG
Sequence of mfNPR1-mFc (monkey) (chain, as listed by the source limits assumed): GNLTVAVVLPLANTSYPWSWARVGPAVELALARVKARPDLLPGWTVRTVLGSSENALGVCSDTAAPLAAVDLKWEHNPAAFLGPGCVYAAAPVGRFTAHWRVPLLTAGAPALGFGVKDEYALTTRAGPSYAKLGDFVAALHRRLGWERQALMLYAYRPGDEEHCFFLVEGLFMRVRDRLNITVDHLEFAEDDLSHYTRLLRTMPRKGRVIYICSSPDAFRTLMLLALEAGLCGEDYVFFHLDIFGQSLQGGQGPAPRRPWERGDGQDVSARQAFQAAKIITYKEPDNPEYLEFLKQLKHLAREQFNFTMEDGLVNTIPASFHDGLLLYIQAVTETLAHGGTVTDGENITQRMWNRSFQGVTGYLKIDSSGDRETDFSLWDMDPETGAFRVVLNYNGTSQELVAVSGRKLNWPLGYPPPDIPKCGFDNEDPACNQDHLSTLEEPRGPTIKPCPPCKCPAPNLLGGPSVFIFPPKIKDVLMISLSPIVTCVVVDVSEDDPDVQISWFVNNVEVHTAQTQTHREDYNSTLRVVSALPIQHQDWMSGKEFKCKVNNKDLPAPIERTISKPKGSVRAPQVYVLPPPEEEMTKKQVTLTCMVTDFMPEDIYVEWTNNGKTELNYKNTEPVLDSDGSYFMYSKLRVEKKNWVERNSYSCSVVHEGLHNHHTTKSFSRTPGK
Sequence of mNPR1-mFc (mouse) (chain, as listed by the source limits assumed): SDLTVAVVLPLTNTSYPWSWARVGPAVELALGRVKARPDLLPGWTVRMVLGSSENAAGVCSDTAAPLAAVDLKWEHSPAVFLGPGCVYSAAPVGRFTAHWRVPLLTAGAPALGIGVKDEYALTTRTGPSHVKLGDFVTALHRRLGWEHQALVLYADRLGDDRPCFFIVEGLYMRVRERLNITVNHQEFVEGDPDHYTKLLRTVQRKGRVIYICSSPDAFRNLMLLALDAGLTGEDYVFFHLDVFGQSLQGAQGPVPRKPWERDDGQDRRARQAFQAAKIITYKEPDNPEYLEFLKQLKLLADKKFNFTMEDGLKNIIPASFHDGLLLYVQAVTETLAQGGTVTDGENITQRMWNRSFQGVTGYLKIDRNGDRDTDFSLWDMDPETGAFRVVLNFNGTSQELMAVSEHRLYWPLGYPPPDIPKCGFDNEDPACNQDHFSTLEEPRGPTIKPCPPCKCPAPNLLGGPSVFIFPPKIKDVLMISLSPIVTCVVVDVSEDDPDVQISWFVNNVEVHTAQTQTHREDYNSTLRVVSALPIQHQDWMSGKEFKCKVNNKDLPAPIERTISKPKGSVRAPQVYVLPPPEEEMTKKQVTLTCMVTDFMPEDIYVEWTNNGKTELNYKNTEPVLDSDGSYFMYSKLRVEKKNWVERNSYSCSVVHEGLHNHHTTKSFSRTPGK

As for “ANP (from UniProt P01160 124-151) (ligand)”, the EC50 (pM), ligand ANP, calcium flux activation, Expt II in assay [1] was 78.8 pM.

With IgG4 Isotype Control (antibody), the 100 nM Ag Bound (RU) in assay [2] was -12 RU; in assay [3], -11 RU; with mfNPR1-mFc (monkey) [4], 5 RU; in assay [5], 7 RU; in [6] it was 7 RU; in assay [7], -18 RU. For the same substance, the 100 nM Ag Bound (RU) is -17 RU in assay [8]; 8 RU in the assay with mfNPR1-mFc (monkey) [9]; 9 RU in assay [10]; 0 RU with mNPR1-mFc (mouse) [12]; 1 RU in assay [13]; 2 RU in assay [14]. In addition, the 100 nM Ag Bound (RU) with mNPR1-mFc (mouse) [15] worked out at 2 RU; in [16] it was 2 RU; in assay [17] it was 3 RU; in assay [18], 9 RU. The % Activation (vs ANP max), Expt 1 in assay [1] was -6.03%. The same substance displayed a % Activation (vs. ANP max), Expt II in [1] of 1.9%. Moreover, the Ratio at 3.7 nM Ab concentration of Cell Binding Signal (RLU) to HEK293/hNPR1.myc.DKK relative to parental HEK293 in assay [11] was 1.
